# From publication PMC8494132, “Human Three-Finger Protein Lypd6 Is a Negative Modulator of the Cholinergic System in the Brain” (Frontiers in Cell and Developmental Biology, 2021)
# Tests used:
# [1] = target: LRP6 (Homo sapiens) (UniProt O75581); details: cited from earlier work
# [2] = target: T1, α7-nAChR (native, rat hippocampal CA1 interneurons) (Rattus norvegicus, UniProt Q05941); test: whole-cell patch clamp, hippocampal slices; details: agonist; 1 mM choline pulses, 22°C, -60 mV, pH 7.4
# T1 construct: gene Chrna7; native receptor in CA1 stratum radiatum interneurons of hippocampal slices
# T1 sequence (Q05941 23-502): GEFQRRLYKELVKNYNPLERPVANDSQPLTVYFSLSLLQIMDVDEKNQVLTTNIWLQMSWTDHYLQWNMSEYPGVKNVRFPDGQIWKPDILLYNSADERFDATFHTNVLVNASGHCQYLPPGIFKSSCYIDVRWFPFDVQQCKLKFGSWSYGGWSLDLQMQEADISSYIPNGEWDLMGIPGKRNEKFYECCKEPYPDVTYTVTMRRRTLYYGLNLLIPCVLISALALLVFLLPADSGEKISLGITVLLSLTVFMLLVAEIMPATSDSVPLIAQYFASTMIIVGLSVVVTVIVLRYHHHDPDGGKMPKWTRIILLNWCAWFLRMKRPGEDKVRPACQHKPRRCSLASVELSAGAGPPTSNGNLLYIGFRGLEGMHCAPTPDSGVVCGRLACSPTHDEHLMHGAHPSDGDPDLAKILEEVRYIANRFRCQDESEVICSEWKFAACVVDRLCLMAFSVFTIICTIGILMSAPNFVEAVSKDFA
# [3] = target: native α7 nicotinic acetylcholine receptor in interneurons of CA1 stratum radiatum, rat hippocampal slices (rat (endogenous in hippocampal slices)) (UniProt Q05941)
# native α7 nicotinic acetylcholine receptor in interneurons of CA1 stratum radiatum, rat hippocampal slices (rat (endogenous in hippocampal slices)), sequence (Q05941 23-502): as above
# [4] = target: human homomeric α7 nicotinic acetylcholine receptor expressed in X. laevis oocytes (human) (UniProt P36544)
# human homomeric α7 nicotinic acetylcholine receptor expressed in X. laevis oocytes (human), sequence (P36544 23-502): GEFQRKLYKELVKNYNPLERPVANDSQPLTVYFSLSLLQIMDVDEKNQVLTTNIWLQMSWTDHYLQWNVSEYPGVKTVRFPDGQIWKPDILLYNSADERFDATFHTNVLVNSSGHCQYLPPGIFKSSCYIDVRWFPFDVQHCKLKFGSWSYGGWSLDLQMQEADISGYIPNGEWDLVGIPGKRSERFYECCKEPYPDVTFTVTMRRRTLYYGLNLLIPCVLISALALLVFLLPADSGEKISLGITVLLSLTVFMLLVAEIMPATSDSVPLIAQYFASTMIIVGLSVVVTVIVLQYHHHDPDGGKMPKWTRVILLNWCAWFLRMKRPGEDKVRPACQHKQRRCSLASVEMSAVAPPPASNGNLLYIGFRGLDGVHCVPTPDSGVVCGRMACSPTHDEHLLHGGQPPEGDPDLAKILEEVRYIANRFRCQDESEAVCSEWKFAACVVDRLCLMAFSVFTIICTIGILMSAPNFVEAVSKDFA
# [5] = target: human α3β4 nicotinic acetylcholine receptor expressed in X. laevis oocytes (human) (UniProt P32297)
# human α3β4 nicotinic acetylcholine receptor expressed in X. laevis oocytes (human), sequence (P32297 32-505, chain 1 of 2): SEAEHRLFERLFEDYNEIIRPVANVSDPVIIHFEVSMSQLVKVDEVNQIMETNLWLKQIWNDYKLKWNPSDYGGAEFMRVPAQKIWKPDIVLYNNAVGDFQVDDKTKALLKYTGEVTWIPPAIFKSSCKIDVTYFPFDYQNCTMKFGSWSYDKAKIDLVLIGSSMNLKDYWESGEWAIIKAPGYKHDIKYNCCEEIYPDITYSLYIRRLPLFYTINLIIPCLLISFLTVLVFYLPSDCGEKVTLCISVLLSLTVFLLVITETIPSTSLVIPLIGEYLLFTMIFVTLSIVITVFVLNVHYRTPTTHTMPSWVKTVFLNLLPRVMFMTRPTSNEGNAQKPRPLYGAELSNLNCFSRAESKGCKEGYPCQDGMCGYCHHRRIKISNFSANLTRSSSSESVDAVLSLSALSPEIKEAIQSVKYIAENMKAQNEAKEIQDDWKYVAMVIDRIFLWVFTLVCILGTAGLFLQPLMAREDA
# human α3β4 nicotinic acetylcholine receptor expressed in X. laevis oocytes (human), sequence (P30926 22-498, chain 2 of 2, further chain): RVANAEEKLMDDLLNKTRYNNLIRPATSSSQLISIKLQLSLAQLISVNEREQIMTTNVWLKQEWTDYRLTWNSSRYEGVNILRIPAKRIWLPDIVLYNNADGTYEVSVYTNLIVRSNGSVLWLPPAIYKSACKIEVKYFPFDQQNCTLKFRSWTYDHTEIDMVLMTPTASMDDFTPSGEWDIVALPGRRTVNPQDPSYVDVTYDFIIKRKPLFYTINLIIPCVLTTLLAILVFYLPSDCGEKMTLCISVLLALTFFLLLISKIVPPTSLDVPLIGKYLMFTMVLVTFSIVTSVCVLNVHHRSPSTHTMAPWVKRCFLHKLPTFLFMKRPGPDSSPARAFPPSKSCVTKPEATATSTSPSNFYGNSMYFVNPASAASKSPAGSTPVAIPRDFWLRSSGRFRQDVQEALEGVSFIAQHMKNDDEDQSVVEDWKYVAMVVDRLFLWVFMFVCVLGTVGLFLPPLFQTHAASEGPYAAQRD
# [6] = target: human homomeric α7 nicotinic acetylcholine receptor expressed in X. laevis oocytes (human) (UniProt P36544); remark: listed apart in the source
# recombinant water-soluble variant of human Lypd6 containing the isolated three-finger LU-domain (ws-Lypd6) (domain or fragment), sequence (Q86Y78 23-171, change not shown): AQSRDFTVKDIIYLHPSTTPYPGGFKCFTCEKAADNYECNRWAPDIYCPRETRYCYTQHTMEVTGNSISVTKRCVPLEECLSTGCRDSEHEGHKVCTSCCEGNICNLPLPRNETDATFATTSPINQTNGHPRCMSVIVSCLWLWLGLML
# Lypd6, sequence (Q86Y78 23-147): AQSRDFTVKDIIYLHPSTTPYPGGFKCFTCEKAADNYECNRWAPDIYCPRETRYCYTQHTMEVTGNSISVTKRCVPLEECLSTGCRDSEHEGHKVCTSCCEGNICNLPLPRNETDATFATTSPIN
# LRP6 (Homo sapiens), sequence (O75581 20-1370): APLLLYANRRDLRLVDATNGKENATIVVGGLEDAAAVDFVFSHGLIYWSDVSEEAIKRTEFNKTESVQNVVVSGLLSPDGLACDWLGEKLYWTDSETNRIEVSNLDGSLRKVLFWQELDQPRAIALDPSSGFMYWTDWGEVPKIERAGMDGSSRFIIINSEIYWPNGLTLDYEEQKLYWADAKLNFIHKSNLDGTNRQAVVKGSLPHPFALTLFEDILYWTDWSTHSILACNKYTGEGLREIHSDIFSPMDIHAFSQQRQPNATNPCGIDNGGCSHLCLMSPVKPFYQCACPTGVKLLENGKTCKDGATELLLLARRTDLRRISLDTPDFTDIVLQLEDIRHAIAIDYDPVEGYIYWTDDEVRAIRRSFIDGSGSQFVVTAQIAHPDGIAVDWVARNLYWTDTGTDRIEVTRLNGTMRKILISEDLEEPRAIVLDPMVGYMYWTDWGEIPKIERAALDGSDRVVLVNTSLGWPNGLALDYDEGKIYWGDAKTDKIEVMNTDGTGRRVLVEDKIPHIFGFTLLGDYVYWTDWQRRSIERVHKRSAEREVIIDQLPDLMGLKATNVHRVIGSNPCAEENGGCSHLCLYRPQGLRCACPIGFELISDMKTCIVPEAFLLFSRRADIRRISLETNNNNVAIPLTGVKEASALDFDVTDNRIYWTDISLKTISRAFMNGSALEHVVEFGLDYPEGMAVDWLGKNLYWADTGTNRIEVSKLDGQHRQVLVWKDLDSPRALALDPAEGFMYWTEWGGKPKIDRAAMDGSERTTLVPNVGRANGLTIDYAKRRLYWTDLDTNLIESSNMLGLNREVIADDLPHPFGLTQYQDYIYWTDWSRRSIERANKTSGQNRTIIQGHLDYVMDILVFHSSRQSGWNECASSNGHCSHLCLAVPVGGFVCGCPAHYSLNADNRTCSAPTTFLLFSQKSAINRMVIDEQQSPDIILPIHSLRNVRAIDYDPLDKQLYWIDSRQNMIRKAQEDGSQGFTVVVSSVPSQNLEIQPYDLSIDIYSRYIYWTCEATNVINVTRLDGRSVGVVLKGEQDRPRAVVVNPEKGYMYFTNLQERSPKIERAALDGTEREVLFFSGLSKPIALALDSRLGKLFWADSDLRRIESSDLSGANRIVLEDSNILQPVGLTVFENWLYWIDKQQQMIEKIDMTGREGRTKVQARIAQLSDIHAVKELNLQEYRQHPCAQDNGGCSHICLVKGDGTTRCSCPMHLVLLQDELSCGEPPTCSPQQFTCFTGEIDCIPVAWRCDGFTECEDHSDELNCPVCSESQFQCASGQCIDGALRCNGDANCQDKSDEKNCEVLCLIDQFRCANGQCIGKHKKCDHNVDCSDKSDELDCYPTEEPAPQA
molecule,measurement,setting,value
Lypd6 (from UniProt Q86Y78),Kd,[1],1 µM
C[N+](C)(C)CCO [Choline],"whole-cell patch clamp, hippocampal slices",[2],Application of choline induced the robust currents in the interneurons of CA1 str. radiatum
recombinant water-soluble variant of human Lypd6 containing the isolated three-finger LU-domain (ws-Lypd6) (domain or fragment),"amplitude of choline-evoked currents (1 mM choline) with 1 μM ws-Lypd6, whole-cell patch clamp in rat hippocampal slices with 8 μM DhβE; reversed by washout (% of the control value)",[3],72
same,"IC50 of inhibition of ACh-evoked currents (100 μM ACh, 15 s pre-incubation), two-electrode voltage clamp, X. laevis oocytes",[4],10.9 µM
same,"IC50 of inhibition of ACh-evoked currents (100 μM ACh, 5 min pre-incubation), two-electrode voltage clamp, X. laevis oocytes",[5],34.9 µM
isolated water-soluble LU-domain of Lypd6b (ws-Lypd6b) (domain or fragment) FKCFTCENAGDNYNCNRWAEDKWCPQNTQYCLTVHHFTSHGRSTSITKKCASRSECHFVGCHHSRDSEHTECRSCCEGMICNVELPTNHTNAVFA,"reduction of the ACh-evoked current amplitude by 30 μM ws-Lypd6b (100 μM ACh), two-electrode voltage clamp, X. laevis oocytes",[6],20%
